The text below walks through data of PMC3509434.

In assay [1] the target is soluble gB truncated at amino acid 730, gB(730t) (herpes simplex virus 1 (HSV-1)) (UniProt P06437). The assay can be described thus: SEC. For orientation: In gel filtration, larger molecules generally elute earlier.
Assay [2] has as its target soluble gB truncated at amino acid 739, gB(739t) (herpes simplex virus 1 (HSV-1), strain KOS) (UniProt P06437). Briefly: native gel or EMSA.
The target is the same in assay [3]. Briefly: SEC.
The target of assay [4] is soluble gB truncated at amino acid 749, gB(749t) (herpes simplex virus 1 (HSV-1), strain KOS) (UniProt P06437). Briefly: native gel or EMSA.
Assay [5] shares this target. Briefly: SEC.
Assay [6] deals with soluble gB truncated at amino acid 759, gB(759t) (herpes simplex virus 1 (HSV-1), strain KOS) (UniProt P06437). The assay can be described thus: native gel or EMSA. In general terms: Mobility shift assays separate free from complexed probe on a gel.
Assay [7] shares this target. The assay can be described thus: SEC.
In assay [8] the target is soluble gB truncated at amino acid 773, gB(773t) (herpes simplex virus 1 (HSV-1), strain KOS) (UniProt P06437). Briefly: native gel or EMSA.
For assay [9] the target is unchanged. The assay can be described thus: SEC.

In [1], “soluble gB truncated at amino acid 730, gB(730t) (from UniProt P06437 31-730) (domain or fragment)” had a stoichiometry N of 3.

Take “soluble gB truncated at amino acid 739, gB(739t) (from UniProt P06437 31-739) (domain or fragment)”: the stoichiometry N in assay [2] and in assay [3] was 3 each time. As to “soluble gB truncated at amino acid 749, gB(749t) (from UniProt P06437 31-749) (domain or fragment)”, the stoichiometry N in assay [4] and in assay [5] was 3 in each case. Consider “soluble gB truncated at amino acid 759, gB(759t) (from UniProt P06437 31-759) (domain or fragment)”, for which the stoichiometry N in assay [6] and in [7] was 3 each time. “soluble gB truncated at amino acid 773, gB(773t) (from UniProt P06437 31-773) (domain or fragment)”: the stoichiometry N in [8] and in assay [9] was 3 each time.

Broadly, the stoichiometry N is the number of molecules, sites or subunits per partner or assembly.
